# pIC50, pKd: −log10 of the molar value.
# How the values were obtained:
# [1] = system: Immunoglobulin E (IgE) (Homo sapiens), P01854-1; experiment: filter
# [2] = biological target: T1, Immunoglobulin E (IgE), cynomolgus (Macaca fascicularis) (UniProt A0A7N9DC98); experiment: inhibition; conditions: 2'-F C,U; no inhibition of monkey IgE-FceR1 up to 1 uM
# T1 sequence: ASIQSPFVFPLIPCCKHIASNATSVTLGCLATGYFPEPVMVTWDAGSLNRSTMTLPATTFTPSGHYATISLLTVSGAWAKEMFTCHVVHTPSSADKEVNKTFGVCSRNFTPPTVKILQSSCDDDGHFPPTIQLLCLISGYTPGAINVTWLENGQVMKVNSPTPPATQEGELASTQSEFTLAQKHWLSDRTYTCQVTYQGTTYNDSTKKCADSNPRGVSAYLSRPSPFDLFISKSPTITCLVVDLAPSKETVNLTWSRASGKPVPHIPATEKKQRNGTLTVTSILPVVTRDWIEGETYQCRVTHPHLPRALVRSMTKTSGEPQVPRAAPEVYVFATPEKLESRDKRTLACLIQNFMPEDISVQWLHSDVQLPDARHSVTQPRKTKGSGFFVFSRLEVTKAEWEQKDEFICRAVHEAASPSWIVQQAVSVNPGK
# [3] = system: Immunoglobulin E (IgE) (Homo sapiens), P01854-1; experiment: inhibition; conditions: 2'-F C,U
# [4] = biological target: T2, Immunoglobulin E (IgE) (Macaca fascicularis) (UniProt A0A7N9DC98); experiment: inhibition; conditions: ELISA, monkey IgE:FceR1a-Fc
# T2 sequence: T1 sequence
# [5] = system: Immunoglobulin E (IgE) (Homo sapiens), P01854-1; experiment: FP; conditions: 2'-F C and U; nitrocellulose dot blot filter, not fluorescence; biphasic, KD2 12.5 nM; 1xSHMCK + 0.1 mg/mL tRNA, RT
# [6] = system: Immunoglobulin E (IgE) (Homo sapiens), P01854-1; experiment: FP_none; conditions: 2'-OMe G2 and all C,U, rest 2'-deoxy, 3' idT [2'-OMe at 2,3,4,5,11,12,13,15,22,23, 3'-idT at 24]
# Immunoglobulin E (IgE) (Homo sapiens), P01854-1, sequence (P01854 other isoform, or with tags, fused parts or gaps): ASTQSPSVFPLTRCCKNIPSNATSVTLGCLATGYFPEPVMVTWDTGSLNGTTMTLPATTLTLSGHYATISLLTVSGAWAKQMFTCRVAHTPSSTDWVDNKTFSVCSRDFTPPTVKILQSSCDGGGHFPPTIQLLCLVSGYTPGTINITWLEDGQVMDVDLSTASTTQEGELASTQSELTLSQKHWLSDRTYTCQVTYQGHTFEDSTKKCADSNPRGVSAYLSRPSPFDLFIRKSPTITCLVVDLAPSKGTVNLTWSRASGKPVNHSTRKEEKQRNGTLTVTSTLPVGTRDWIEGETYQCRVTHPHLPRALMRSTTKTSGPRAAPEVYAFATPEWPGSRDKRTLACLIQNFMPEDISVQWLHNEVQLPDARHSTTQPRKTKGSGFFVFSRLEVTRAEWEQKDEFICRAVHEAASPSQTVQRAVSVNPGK
sequence,measurement,setting,value
GGAGAUCCGAGGGUGGGCAAUAGGCUCACAAGGGUUU [rRfY minimer SEQ 93],pKd,"[1]; 2'-F C and U, KD2 17.1 nM, 1xSHMCK + tRNA",9.19
same,pIC50,[2],< 6.00
same,pIC50,"[3]; FACS, 15 nM IgE",7.90
AGCCUGGGGACCCAUGGGGGGCU [ARC445],pKd,"[1]; dRmY: 2'-deoxy A,G, 2'-OMe C,U, dPBS Ca/Mg + 0.1 mg/mL BSA, RT, 22 nM in PBS with tRNA + ssDNA (Table 10)",8.52
same,pIC50,"[4]; dRmY: 2'-deoxy A,G, 2'-OMe C,U, human IC50 63 nM in same assay",6.79
GGGAAAAGCGAAUCAUACACAAGACGUCGCCAGAUUGAGUGUCGUGGUUCGGGUUGAGGCGGAAGCUCCGCCAGAGACCAACCGAGAA [rRfY clone SEQ 11],pKd,[5],9.84
same,pIC50,"[3]; ELISA FceR1-Fc, FACS 14 nM (Table 25)",8.59
AGCCUGGGGACCCAUGGGGGGCU [ARC1666],pKd,"[1]; mAmGmCmCmUdGmGdG-s-dGmAmCmCmCmAmU-s-dI-s-mGdI-s-dGdI-s-dGmCmU-3T [2'-OMe 1-5,7,10-15,17,22,23, dI16,dI18,dI20 (inosine, parent base G), phosphorothioate 8/9,15/16,16/17,18/19,20/21 (N linkage letters left out), 3' inverted dT24], dPBS Ca/Mg + BSA, RT, 0.06 nM in Table 23",10.46
same,pIC50,"[4]; mAmGmCmCmUdGmGdG-s-dGmAmCmCmCmAmU-s-dI-s-mGdI-s-dGdI-s-dGmCmU-3T [2'-OMe 1-5,7,10-15,17,22,23, dI16,dI18,dI20 (inosine, parent base G), phosphorothioate 8/9,15/16,16/17,18/19,20/21 (N linkage letters left out), 3' inverted dT24], human IC50 5 nM in same assay",8.10
GGGAAAAGCGAAUCAUACACAAGACGUCGCCAGAUUGAGUGUCGUGGUU [rRfY minimer SEQ 90],pKd,"[1]; 2'-F C and U, KD2 28.2 nM, 1xSHMCK + 0.1 mg/mL tRNA",9.48
same,pIC50,[2],< 6.00
AGCCUGGGGACCCAUGGGGGGCU [ARC1251],pKd,[6],8.15
